# Source: patent publication US20250179187A1, “ANTI PD-L2 ANTIBODY” (REJUVERON SENESCENCE THERAPEUTICS AG, priority 2022, published 2025)
# T1: cellular hPD-L2 expressed on CHOK-1 cells (Homo sapiens, UniProt Q9BQ51)
# T1 construct: GFP; expressed in transfected cells; host or cells: CHO-K1
# T1 sequence (Q9BQ51 20-273): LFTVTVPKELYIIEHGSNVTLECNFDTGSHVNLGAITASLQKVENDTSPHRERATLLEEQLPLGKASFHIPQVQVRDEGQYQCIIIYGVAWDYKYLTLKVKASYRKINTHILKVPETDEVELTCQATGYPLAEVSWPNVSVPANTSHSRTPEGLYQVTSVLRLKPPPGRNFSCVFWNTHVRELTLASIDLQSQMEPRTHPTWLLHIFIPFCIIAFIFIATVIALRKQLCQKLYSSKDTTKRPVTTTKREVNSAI
# T2: hPD-L2/hPD-1 interaction (Homo sapiens, UniProt Q9BQ51)
# T2 construct: host or cells: CHO-K1 (hPD-L2) co-cultured with Jurkat PD-1 effector cells
# T2 sequence (Q9BQ51 20-273): T1 sequence (Q9BQ51 20-273)
# B1: VH0/VK0-mIgG1: parental murine anti-PD-L2 antibody on mIgG1 backbone; SEQ ID NO: 21/SEQ ID NO: 22 (antibody, V domains shown)
# VH: QVQLQQSGAELVRPGTSVKVSCKASGYAFSNYFIEWVKQRPGQGLEWIGLNIPGSGGSNYAEKFKGKATLTADKSSSTAYMQLSSLTSEDSAVYFCARRRLPPDWYFDVWGTGTTVTVSS
# VL: DVVMTQTPLSLPVSLGDQASISCRSSQSLVHSDGNTYLHWYLQKPGQSPKLLIYKVSNRFSGVPDRFSGSGSGTDFTLKISRVEAEDLGVYFCSQSTHVPWTFGGGTKLEIK
# Tests used:
# [1] = molecular target: T1, cellular hPD-L2 expressed on CHOK-1 cells; assay: Binding of antibodies to cellular hPD-L2 on CHO-K1 cells by flow cytometry; details: compared to a panel of commercially available anti-PD-L2 antibodies
# Procedure: CHO-K1 cells over-expressing either hPDL2-GFP or mPD-L2 GFP were detached, washed in phosphate buffered saline (PBS) and adjusted to a cell concentration of around 1 million cells in cytometry buffer (CB, PBS containing 1% […]). Around 80,000 cells were then distributed into a round-bottom 96 well plate and the plate was centrifuged for 3 minutes at 400 g at 4° C. and supernatant discarded. Appropriate antibody concentrations in 50 microliter volumes were added to the wells and incubated for 30 minutes at 6-8° C. The plate was washed 3 times with PBS and relevant secondary antibodies (either AlexaFluor 647 Goat anti-Mouse IgG (H+L) (Invitrogen A21235/lot 1915807) or AlexaFluor 647 Goat anti-Rat IgG (H+L) (Invitrogen A21247/lot 1921562) were added for 30 minutes at 4° C. Cells were again washed with PBS two times, resuspended in CB and analyzed in either the Sony ID7000 Spectral Cell analyzer (Sony) or the GALLIOS Flow Cytometer (Beckman-Coulter) was used. EC50 was calculated using the Sigmoidal 4PL equation of the GraphPad Prism-9 software.
# hPD-L2/hPD-1 interaction = molecular target: T2, hPD-L2/hPD-1 interaction; assay: Reporter assay, blocking of cellular hPD-L2/hPD-1 interaction (Jurkat hPD-1 / CHO-K1 hPD-L2 co-culture); type: cell-based; details: reporter in hPD-1 Jurkat cells co-cultured with hPD-L2 CHO-K1 cells; compared to MIH-18, 24F.10C12 and D7U86
# Procedure: Cellular blocking activity of antibodies according to the present invention was assessed by with the Promega (Southampton, Hampshire, UK) PD-1/PD-L2 blockade bioassay (Promega, Cat No. CS187131-1), which is a bioluminescent cell-based assay that is used to measure the potency and stability of antibodies and other biologics designed to block the hPD-1/PD-L2 interaction. In brief, CHO-K1 cells overexpressing hPD-L2 were thawed and plated in a 96 well plate. The following day, appropriate concentrations of antibodies were added to the wells. Jurkat PD-1 effector cells, expressing a luminescent NFAT reporter for cell activation, were subsequently thawed and added to the wells immediately. The co-culture was incubated for 6 hours and read using the SpectraMax i3× reader (Molecular Devices, Wokingham, UK). GraphPad Prism 9.0 (GraphPad Software, La Jolla, Ca) was used for the data analysis and data was plotted using a four-parameter non-linear regression model.
molecule,measurement,setting,value
B1,binding activity against cellular hPD-L2,[1],superior binding activity
same,blocking activity against cellular hPD-L2/hPD-1 interaction,hPD-L2/hPD-1 interaction,superior blocking activities
